B1: Apoptosis-associated speck-like protein containing a CARD, residues 114 to 194; numbered along this chain, Q9ULZ3 (parent)
chain: FIDQHRAALIARVTNVEWLLDALYGKVLTDEQYQAVRAEPTNPSKMRKLFSFTPAWNWTCKDLLLQALRESQSYLVEDLER

Variants of: B1
Assay: abundance fitness (aPCA) (normalised: wild type 0, dead -1); higher = more abundant; growth selection in yeast, the domain comes from the species named
Conditions: Homo sapiens

Abundance fitness of substitutions, site by site:
W18: F 0.213; V 0.107; M 0; G 0.169; E 0.103; Y 0.186; D 0.18; P 0.174; A 0.248; T 0.053; Q 0.174; K 0.186; R 0.076; I 0.061; L 0.043; S 0.163; C 0.029
R6: T -0.549; C -0.752; H -0.635; S -0.385; G -0.501; V -0.416; I -0.389; D -0.724; P -0.685; M -0.107; N -0.397; E -0.141; K 0.014; Q -0.285; L -0.362; Y -0.327; F -0.538; A -0.074
R12: Y -0.484; I -0.803; L -0.948; F -0.655; T -0.746; N -0.14; E -0.316; K -0.228; C -0.361; A -0.707; D -0.666; G -0.17; M -0.628; P -0.964; H -0.219; Q -0.152; S -0.462; W -1.18
V16: D -0.773; W -0.533; P -0.35; F -0.941; R -0.573; G -0.88; H -0.821; I -0.464; S -0.846; L -0.484; T -0.572; A -0.794; Y -1.02; E -0.928; Q -0.865; C -0.342
E17: P -0.705; R -0.642; F -0.97; V -0.985; D 0.019; A -0.619; Y -0.61; L -0.859; H -0.695; C -0.867; W -0.642; N -0.286; G -0.357; T -0.267; M -0.49; Q -0.083; S -0.536
I10: C -0.628; Y -0.54; S -0.977; R -0.631; D -0.658; T -0.515; F -0.84; G -0.74; P -0.985; N -0.745; M -0.489; Q -0.655; W -0.793; H -0.769; E -0.594; A -0.714
Y24: T -0.654; R 0.109; H 0.067; A -0.254; S -0.319; V -0.054; K 0.255; P -0.598; L -0.035; G -0.483; Q -0.217; I -0.395; F -0.594; M -0.501; N -0.078; D -0.157
D21: H -0.162; C -0.466; A -0.477; W -0.496; Y -0.805; F -0.801; E -0.091; I -0.69; K -0.287; M -0.292; L -0.695; G -0.331; T -0.313; R -0.33; N -0.264; Q -0.115; P -0.987
L20: P -0.543; C 0.005; D -0.518; N -0.797; S -0.583; Y -0.626; G -0.901; Q -0.854; M -0.458; V -0.388; I -0.179; R -0.917; E -0.723; F -0.621
A11: R -0.038; E -0.115
N15: R -0.359; G -0.604; T -0.518; A -0.718; P -0.806; F -0.997; M -0.847; K -0.041; W -0.605; L -0.796; I -0.857; H -0.291; V -0.947; E -0.188; C -0.718; D -0.142; Y -0.555
L9: R -0.925; H -0.749; E -0.76; Q -1.03; I -0.429; Y -0.644; W -0.811; M -0.563; N -0.776; K -0.948; A -0.901; F -0.763; S -0.938; V -0.989; P -0.694; G -0.624; C -0.558; D -0.798
V13: E -0.538; F -0.495; R -0.851; K -0.899; G -0.598; Q -0.775; N -0.861; P -0.396; Y -0.729; D -0.688; H -0.878; C 0.023; M -0.611; L -0.632; A -0.039; W -0.893; S -0.535
A8: Q -0.078; H -0.375; K -0.521; N -0.558; M -0.372; S -0.112; E 0.2; P -0.945; T -0.239; V -0.424; Y -0.193; L -0.79; G -0.577; W -0.776; F -0.673; I -0.225; C -0.312
T14: P -0.815; K -0.295; I -0.541; R -0.209; D -0.058; M -0.607; E -0.004; A -0.4; C -0.656; Q -0.252; N -0.206; H -0.644; G -0.265; Y -0.54; L -0.571; F -0.749; W -0.864; S -0.045
L23: G -0.911; T -0.943; Y -0.586; N -1.06; F -0.737; I -0.564; C -0.444; W -0.939; E -0.719; R -0.83; Q -0.739; V -0.611; K -0.645; M -0.392; D -0.962; S -0.879; H -0.698; A -0.753
A7: N 0.002; P -0.437; T -0.277; I -0.638; V -0.249; L -0.461; M -0.251; H -0.149; D 0.065; S -0.014; Y -0.54; E 0.295; F -0.652; G -0.152; R -0.119; K -0.035; C -0.2; Q 0.045
Q4: W -0.802; L -0.352; R -0.19; M -0.161; P -1.03; T 0.117; N -0.103; V -0.165
L19: Q -0.439; T -0.912; F -0.781; A -0.319; S -0.853; W -0.643; G -0.827; M -0.787; R -0.906; I -0.122; V -0.051; D -0.395; N -0.704; E -0.882; K -0.922; Y 0.243; P -0.787
A22: C -0.127; R 0.094; H -0.116; T -0.146; I 0.126; K 0.331; G -0.4; V -0.476; W -0.183; P -1; Q 0.063; L -0.135; N -0.08; D -0.302; S -0.057; M -0.183; Y -0.004
H5: N -0.157; L -0.071; G -0.833; R -0.743; M -0.145; E -0.441; W -0.381; Q -0.341; V -0.147; P -0.741; F -0.553; I -0.057; Y -0.316; D -0.751; K -0.605; A -0.276; T -0.602; S -0.657

Reference: the Human Domainome abundance scans (Beltran et al. 2025)
